The supplement of paper PMC10567573

B1: KRT34 (parent)
chain: PTVDLNQVLNETRSQYEALVETNR

Variants of: B1
Test: protein stability index of a GFP-peptide fusion (GPS, HEK-293T) (PSI 1-6); higher = more stable
Conditions: c terminus: a fixed tail appended
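Also: lentivirally expressed fusions sorted by FACS into six bins by GFP to DsRed ratio, PSI derived from sequencing read proportions per bin multiplied by bin number.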

Protein stability index of substitutions, site by site:
R13: V 3.42; W 3.71; Y 3.64
S14: A 2.09; C 2.25; D 2.87; E 2.23; F 3.3; G 3.56; H 3.32; I 2.44; K 2.47; L 2.12; M 1.65; P 4.1; Q 2.34; R 2.15; T 2.96; V 2.82; W 2.74; Y 3.33
Q15: A 4; C 2.94; D 5.05; E 4.16; F 2.82; G 4.19; H 3.78; I 2.96; K 3.89; L 2.25; M 2.35; N 4.02; P 4.34; R 4.16; S 4.38; V 3.19; W 1.94; Y 2.91
Y16: A 5.1; C 4.44; D 5.26; E 5.44; F 3.65; G 4.89; H 5.25; I 4.23; K 4.57; L 4.19; M 4.76; N 4.99; P 4.8; Q 5.57; R 5.42; S 4.98; T 4.58; V 4.9; W 3.63
E17: A 3.77; C 2.93; D 4.67; F 3.08; G 4.02; H 3.93; I 2.71; K 4.12; L 3.85; M 3.68; N 4.05; P 3.62; Q 3.88; R 3.83; S 3.85; T 4.23; V 3.7; W 3.35; Y 3.22
A18: C 4.01; D 3.92; E 3.69; F 3.59; G 4.03; H 4.4; I 3.7; K 3.16; L 3.66; M 3.74; N 3.3; P 4.6; Q 3.78; R 2.31; S 3.32; T 3.81; V 4.01; W 3.5; Y 3.6
L19: A 4.47; C 4.72; D 5.03; E 5.63; F 3.51; G 5.03; H 4.75; I 4.16; K 5.17; M 3.84; N 5.01; P 4.7; Q 4.63; R 4.81; S 4.99; T 4.5; V 4.44; W 3.98; Y 4.39
V20: A 2.68; C 3.68; D 4.71; E 3.52; F 3.64; G 4.44; H 4.77; I 4; K 4.86; L 4.04; M 3.58; N 4.42; P 4.91; Q 4.5; R 4.9; S 3.98; T 4.25; W 3.83; Y 4.09
E21: A 3.84; C 3.55; D 3.64; F 2.74; G 4.06; H 3.76; I 3.23; K 4.3; L 3.56; M 3.92; N 3.83; P 4.19; Q 4.3; R 3.62; S 4.02; T 3.74; V 3.49; W 2.62; Y 3.62
T22: A 4.01; C 3.62; D 4.58; E 4.11; F 3.78; G 4.41; H 3.99; I 1.68; K 3.66; L 2.54; M 3.19; N 4.39; P 4.28; R 4.46
